# The nanobody polyreactivity screen of Harvey et al. (2022)
# Assay: yeast display, Sf9 membrane polyspecificity reagent, FACS + sequencing; frameworks hold sequencing errors
# In short: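 After 36–48 hours of galactose induction, yeast (Saccharomyces cerevisiae BJ5465) displaying a synthetic nanobody library were stained at 4 °C for 1 hour with 10% biotinylated, detergent-solubilized Sf9 membrane reagent. Streptavidin microbeads enriched the stained cells before FACS sorting into low and high (top ~1%) gates on anti-HA and streptavidin fluorescence. Each clone's polyreactivity label reflects its gate of origin.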
row,Sequence,polyreactivity (PSR sort gate)
1,QVQLVESGGGLVQAGGSLRLSCAASGFTFEENAMGWYRQAPGKERELVAAINWSGGNTYYADSVKGRFTISRDNAKNTVYLQMNSLKPEDTAVYYCAAEYRSWSWRMDYWGQGTQVTVSS,high polyreactivity
2,QVQLVESGGGLVQAGGSLRLSCAASGSTFNVYAMGWYRQAPGKERDLVAAIDSGDSTNYADSVKGRFTISRDNAKNTVYLEMNSLKPEDTAVYYCAVGYWDSRYRYDWPNSDYWGQGTQVTVSS,low polyreactivity
3,QVQLVESGGGLVQAGGSLRLSCAASGSNFDYYAMGWYRQAPGKERELVAAIRVSGGSTYYADSVKGRFTISRDNAKNTVYLQMNSLKPEDTAVCYCASSYYDFNYEYYYWGQGTQVTVSS,high polyreactivity
4,QVQLVESGGGLVQAGGSLRLSCAASGFIFGDYAMGWYRQAPGKERELVAAIRGSDSTTYYADSVKGRFTISRDNAKNTVYLQMNSLKPEDTAVYYCAAVGVVPRKKSARVYYWGQGTQVTVSS,low polyreactivity
5,QVQLVESGGGLVQAGGTLRLSCAASGSTFYRYAMGWYRTAPGKERELVATITRSGGSTYYADSVKGRFTISRDNAKNTVYLQMNSLKPEDTAVYYCAARGWYKSDYWGQGTQVTVSS,low polyreactivity
6,QVQLVESGGGLVQAGGSLRLSCAASGSIFFNYAMGWYRQAPGKERELVAAITRSGGSTYYADSVKGRFTISRDNAKNTVYLQMNSLKPEDTAVYYCAARYPFGSLGRYGYWGQGTQVTVSS,high polyreactivity
7,QVQLVESGGGLVQAGGSLRLSCAASGSIFPGNGMGWYRQAPGKEMELVASITSGARTNYADSVKGRFTISRDNAKNTVYFPMNSLIPEDTAVYYCAADIKSSIRRAYDYWGQGSQVTVSS,high polyreactivity
8,QVQLVESGGGLVQAGGSLRLSCAASGSTFPYYALGWSRQAPGKEREFVATISSSGGSTYYADSVKGRFTISRDNAKNTVYLQMNSLKPEDTAVYYCAARYQTSGFRYRYGYWGQGTQVTVSS,high polyreactivity
9,QVQLVESGGGLVQAGGSLRLSCAASGSIFDNYALGWYRQAPGKERELVAAISWNGGDTTYADSVKGRFTISRDNAKNTVYLQMNSLKPEDTAVYYCAADLGYWVADFYWGQGTQVTVSS,high polyreactivity
10,QVQLVESGGGLVQAGGSLRLICAASGRIFSYYAMGWYRQAPGKERELVARITSRGASTYYADSVKGRFTISRDNAKNTVYLQMNSLKPEDTAVYYCAARYIPIQYPSYRTWGGYSWGQGTQVTVSS,high polyreactivity
11,QVQLVESGGGLVQAGGSLRLSCAASGFTFAGYAMGWYRQAPGKERELVAAISISGGRTYYADSVKGRFTSSRDYAKNTVYLQMNSLKPEDTAVYYCNAASREPSGYDYWGQGTQVTVSS,high polyreactivity
12,QVQLVESGGGLVQAGGSLRLSCAASGSTFRKYAMGWYRQAPGTEREFVAAITWSTGTTYYADSVKGRFTISRDNAKNTVYLQMNSLKPEDTAVYYCAADSQPPHELYESIEHESWGQGTQVTVSS,low polyreactivity
13,QVQLVESGGGLVQAGGSLRLTCAASGRTLNPYAMGWYRQAPGKERELVAAITWRGGSTYYADSVKGRFTISRDNAKNTVYLQMNSLKPEDTAVYYCAAREYYYPYYYWGQGTQVTVSS,high polyreactivity
14,QVQLVESGGGLVQAGGSLRLSCAASGITFTGYAMGWYRPAPGKERELGAAITWSSGSTYYADSVKGRFTISRDNAKNTVYLQMNSLKPEDTAVYYCAAEVNVGTLLLSVIVEDGDYWGQGTQVTVSS,low polyreactivity
15,QVLLVESGGGLVQAGGSLRLSCAASGYNFFTKAMGWYRQAQGKERELVAAISKSGGRTYYADSVKGRFTISRDNAKNTVYLQMNSLTPEDTAVYYCAARSETSYYPSRYDYWGQGTQVTVSS,high polyreactivity
16,QVQLVESGGGLVQAGGSLRLSCAPSGSIFSYYDMGGYRQAPGKERELVAGISRGGSTNYADSVKGRFTISRDNAKNTVYLQMNSLKPEDTAVYYCNADQSSRTFPFRLSRRSWLYGYWGQGSQVTVSS,low polyreactivity
17,QVQLVESGGGLVQAGGSLRLSCAASGRTFSVNDMGWYRQAPGKERELVAAISFSGGSTYYADSVKGRFTISRDNAKNTVYLQMNSLKPEDTAVYYCASEAYPSWFYVITGFGIYDYWGQGTQVTVSS,high polyreactivity
18,QVHLVESGGGLVQAGCSLRLSSSASGFTFVRNAMGWYRQAPGKERELVAAISKSGGRTYYTDSVKGRFTISRDNAKNSVYLHLNSLIPEDTAVYYCASDPVSDYYGYGYWGQGTQVTVSS,high polyreactivity
19,QVHLVESGGGLVQAGGSLRLSCAASGFIFLPYAMGSYRQAPGKERELVAAITRGGRTYYADSVKGRFTISRDNAKNTVYLQMNSLKPEDTAVYYCAAVVWAPFYEFYYWGQGTQVTVSS,low polyreactivity
20,QVQLVESWGGLVQSGGSLRLICAASGSTNQYNAMGWYRQAPGKERELVAAISLSGATTYYADSVKGRCTISRDPAKNTVYLQMNIQKPEDTSVYYCAADFGWFYDCVAVWFIRILGDYWGQGTQVTVSS,low polyreactivity
21,QVQLVESGGGLVQAGGSLPLSCAASGFIFTSNAMGWYRQAPGKERELVASISGNGGRTNYADSVKGRFTISRDNAKNTVYLQMNSLKPDDTAVYYCAARVRRFLNRVSRYPHDYWGQGTQVTVSS,high polyreactivity
22,QVQLVESGGGLVQAGGSLRLSCAASGITFYLYAMGWYRQAPGKERELVAAISRIGGSTYYADSVKGRFTISRDNAKNTVYLQMNSLKPEDTAVYYCATYYGGSGYDYWGQGTQVTVSS,high polyreactivity

row,Sequence,polyreactivity (PSR sort gate)
1,QVQLVESGGGLVQAGGSLRLSCAASGSTFPSYAMGWSRQAPGKERELVAAISRSGGSTYYADSVKGRFTISRDNAKNTVYLQMISLKPEDTAVYYCAARGHLRYESDYWGQGTQVTVSS,high polyreactivity
2,QVQLVESGGGLVQAGGSLRLSCAASGFIFAYYVMGWYRQAPGKERELVAAISRGGGSTYYADSVKGRFTISRDNAKNTVYLQMNSLKPEDTAVYYCATYSHALRYDYWGQGTQVTVSS,high polyreactivity
3,QVQLVESGGGLVQAGGSLRLSCAASGSIFVRNGMGWYRQAPGKERELVASITSGTITYYADSVKGRFTISRDNAKNTVYLQMNSLKPEDTAVYYCNAGWRSSRMEYWGQGTQVTVSS,high polyreactivity
4,QVQLVESGGGLVQAGGSLRLSCAASGFTFNSYVMGWSRQAPGKERELVAAITRSGDRTYYADSVKGRFTISRDNAKNTVYLQMNSLKPEDTAVYYCAATWSKNYYGWYYYWGQGTQVTVSS,high polyreactivity
5,QFQLVESGRGLVQAGGSLRLSCAASVRTFGFNAMGRYRQAPRKERELVAAISGSGGRTYYADSVKGRFTISRDKAKNTVYLQMNSLKPEDTAVYYCAAGARRGGSGYWGQGTQVTVSS,high polyreactivity
6,QVQLVESAGGLVQAGGSLRLSCAASGFTFLYYAMGWYRKAPGKEREFVAAISYTGGSTYYADSVKGRFTISRDNAKNTVYLQMNSLKPEDTAVYYCAVDGYYWFGSIFDYWGQGTQVTVSS,low polyreactivity
7,QVQLVESRGGLVQAGGSLRLSCAASGRTVRRYAMGWYRQAAGKARELVASISRGSSTNYADSVKGRFTSSRDNAKNTGYLQMNSLKPEHTAVYYCAALGWSARYRYDYWGQGTQVTVSS,high polyreactivity
8,QVQLVESGGGLVQAGGSLRLSCAASGRIIGGYAMGWYRQAPGKERELVAAITFRSGTTYYADSVKGRFTISRDNAKNTVYLQMNSLKPEDTAVYYCAARWGPYAFTYVRTYDYWGQGTQVTVSS,low polyreactivity
9,QVQLVESGGGLVKAGGSLRLSCAASGSIFGSYAMGWYRQAPGKERSTYYADSVKGRFTISRDNAKNTVYLQMNSLKPEDTAVYYRAADTYGYQGSAGGHWGLGTQVTVSS,low polyreactivity
10,QVQLVESGGGLVQAGGSLRLSCDASGSTFGWYAMGWYRQAPGKERELVAAISKNGGRTYYADSVKGRFTISRDNAKNTVYLQMNSLKPVDTAVYYCNKVSKTVRDFDYWGQGTQVTVSS,high polyreactivity
11,QVQLVESGGGLVQAGGSLRLSCAASGFTFVLYAMGWYRQAPGKERELVADITEGGDNTYYADSVKGRFTISRDNAKNTVYLQMNSLKPEDTAVYYCNARASRLYPPYDYWGQGTQVTVSS,high polyreactivity
12,QVQLVESGGGLDQAGGSLRLSCAASGRTFDFYAMGWYRQAPGKEMELVAAITFSTGSTTYADSVKGRFTISRDNAKNTVYLQMNSLKPEDTAVYYCAADGDGWWWSYVDRYDYWGQGTQVTVSS,low polyreactivity
13,QVQLVESGGGLVQAGGSLRLSCPPSGYTISHYAMGWYRQAPGKERELVAGITWSGGSTYYADSVKGRFTISRDNAKNTVYLQMNSLKPEDTSVYFCAAKYYWYYSYSGIPLFDYWGQGTQVTVSS,low polyreactivity
14,QVQLVVSGGGLVQAGGSLRLSCAASGSIFYRNAMGWYRQAPGKDRELVAAISFSGGSTYYADSVKARFSISRDNAKNTVYLQMNSLKPEDTAVYYCAAEAYPSWFYVITGFGIYDYWGQGTQGTVSS,high polyreactivity
15,QVQLVESGGGLVQAGGSLRLSCAASGRTLYIYAMGWYREAPGKERELVAAITNGGTTYADSVKGRFTISRDNAKNTVYLQINSLKPEDTAVYYCNADLRVSRITQYEYWGQGTQVTVSS,low polyreactivity
16,QVQLVESGGGLVQAGGSLRLSCAASGTFVKYARGWYRQAPGKERELVATITGSGGSTYYADSVKGRFTISRDNAKNTVYLQMNSLKPEDTAVYYCAAREGYVFYKYDYWGQGTQVTVSS,low polyreactivity
17,QVQLVESGGGLVQAGGSLRLSCAASGYIFDVNTMGWYRQAPGKERELVAVIRRGGSTTYADSVKGRFTISRDNAKNTVYLQMNSLKPEDTAVYYCNARVTLGRPLFTYLVRYEYWGQGTQVTVSS,high polyreactivity
18,QVQLVESGGGLVQAGGSHRLSCAASGSTFRVYAMGGYRQAPGKERELVARISITGGTTRYADSVKGRFTISRDNAKNTVYLQMNSLKPEDTAVYYCNADYDWYYWYLYKYPFDYWGQGTQVTVSS,low polyreactivity
19,QVQLVESGGGLVQAGGSLRLSCAASGRIFYTNAMGWYRQAPGKERELVAGIRFNGGSTYYADSVKGRFTISRDNAKNTVYLQMNSLKPEDTAVYYCAVRTYYSGYDSWGQGTQVTVSS,low polyreactivity
20,QVQLVESGGGLVQAGGSLRLSCAASGSIFGYNARGWYRQAPGKERELVATINWSGTSTYYAASVKGRFTISRDNAKNTVYLQMNSLKPVDTAVYYCNAKYLWYGRYNYWGQGTQVTVSS,high polyreactivity
21,QVQLVESGGGLVQAGGSLRLSCAASGSTFYRNAMGWYRQAPGKERELVAAISTRGSSTYYADSVKGRFTISRDNAKNTVYLQMNSLKPEDTAVYYCTADGIYPVLKFDYDYWGQGTQVTVSS,low polyreactivity
